The assay concerns monocyte-derived DC (moDC). Description: Activation of dendritic cells in presence of ATP. Type of assay: cell-based, human. The note with it: ATP at each of 0.125 mM, 0.25 mM or 0.5 mM; I-394 at 10 μg/ml. The procedure: While ATP has pro-inflammatory activity, CD39-mediated catabolism of ATP is believed to be able to impair dendritic cell (DC) activation, in turn altering a broader adaptive immune response against tumor antigen. In order to evaluate whether CD39 blockade using anti-CD39 antibodies could overcome CD39-mediated alteration of dendritic cell (DC) activation in the presence of ATP, we incubated monocyte-derived DC (moDC) with anti-CD39 antibodies in the presence of ATP.
Briefly, human monocytes were purified from human healthy blood and differentiated into MoDC in presence of GM-CSF and IL-4 during 6 days. […] LPS (Invivogen, 10 ng/ml) was used as positive control. To assess resulting effect of ATP-mediated DC activation on CD4 T cells activation, ATP-activated DC were washed and then incubated with allogenic CD4 T cells (ratio 1 MoDC/4 T cells) for a mixed lymphocytes reaction (MLR) during 5 days. T cells activation and proliferation were analyzed through CD25 expression and Cell Trace Violet dilution by flow cytometry (FIG. 8).

“Also recorded” adds a separate entry of the source.

B1: I-394: anti-CD39 antibody, VH SEQ ID NO: 6, VL SEQ ID NO: 7; heavy/light chains SEQ ID NOS: 52 and 53 (antibody)
heavy: EVQLQQSGPELVKPGASVKMSCKASGYTFTDYNMHWVKQSHGRTLEWIGYIVPLNGGSTFNQKFKGRATLTVNTSSRTAYMELRSLTSEDSAAYYCARGGTRFAYWGQGTLVTVSAASTKGPSVFPLAPSSKSTSGGTAALGCLVKDYFPEPVTVSWNSGALTSGVHTFPAVLQSSGLYSLSSVVTVPSSSLGTQTYICNVNHKPSNTKVDKRVEPKSCDKTHTCPPCPAPEAEGAPSVFLFPPKPKDTLMISRTPEVTCVVVDVSHEDPEVKFNWYVDGVEVHNAKTKPREEQYNSTYRVVSVLTVLHQDWLNGKEYKCKVSNKALPSSIEKTISKAKGQPREPQVYTLPPSREEMTKNQVSLTCLVKGFYPSDIAVEWESNGQPENNYKTTPPVLDSDGSFFLYSKLTVDKSRWQQGNVFSCSVMHEALHNHYTQKSLSLSPGK
light: DIVLTQSPASLAVSLGQRATISCRASESVDNFGVSFMYWFQQKPGQPPNLLIYGASNQGSGVPARFRGSGSGTDFSLNIHPMEADDTAMYFCQQTKEVPYTFGGGTKLEIKRTVAAPSVFIFPPSDEQLKSGTASVVCLLNNFYPREAKVQWKVDNALQSGNSQESVTEQDSKDSTYSLSSTLTLSKADYEKHKVYACEVTHQGLSSPVTKSFNRGEC
modifications: Chimeric homo sapiens mus musculus
B1: the “moDC activation as assessed by HLA-DR or CD83 expression” value is “permitted moDC activation; also recorded: lead to moDC activation”.

(Values after US20230099801A1, “RESTORATION OF T CELL ACTIVITY VIA THE CD39/CD73 AXIS” (INNATE PHARMA, priority 2017, published 2023).)
